Measured values from doi:10.1101/2025.03.18.643936.
Values joined by “and” are separate entries in the source; they are usually repeats but may differ in a detail not shown here. Equal values may be shown once.

Molecular target: the i20S and the s20S (human)
Experiment: mass photometry

Kd, first binding event: 20 nM and 30 nM
Substance: recombinantly expressed and purified human PA200 (from UniProt Q14997 1-1843) (natural protein)
